From US20220119513A1 (ZOETIS SERVICES, published 2022)

Experiments:
TGFβ2 (R&D Systems) [1] = target: T1, TGFβ2 (R&D Systems); test: cell-based or functional assay
T1 sequence (P61812 303-414, species assumed, looked up): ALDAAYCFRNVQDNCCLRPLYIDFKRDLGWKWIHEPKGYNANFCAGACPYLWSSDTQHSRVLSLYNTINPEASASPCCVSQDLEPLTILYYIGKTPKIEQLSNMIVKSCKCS

TGFβ1 (R&D Systems) [2] = test: cell-based or functional assay
TGFβ3 (R&D Systems) [3] = target: T2, TGFβ3 (R&D Systems) (Homo sapiens (Human), UniProt P10600 301-412, Active TGFβ3 is a disulfide-linked homodimer of this chain; one copy is given.); test: cell-based or functional assay
T2 sequence: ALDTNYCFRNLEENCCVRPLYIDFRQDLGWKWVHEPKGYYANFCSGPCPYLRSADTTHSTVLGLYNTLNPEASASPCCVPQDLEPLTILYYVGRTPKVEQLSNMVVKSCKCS

TGFβ2 (R&D Systems) [4] = target: T1, TGFβ2 (R&D Systems); test: SPR full titration
TGFβ1 (R&D Systems) [5] = target: T3, TGFβ1 (R&D Systems); test: SPR full titration
T3 construct: also called TGFB1

TGFβ3 (R&D Systems) [6] = target: T2, TGFβ3 (R&D Systems); test: SPR full titration

T3 sequence (P01137 279-390): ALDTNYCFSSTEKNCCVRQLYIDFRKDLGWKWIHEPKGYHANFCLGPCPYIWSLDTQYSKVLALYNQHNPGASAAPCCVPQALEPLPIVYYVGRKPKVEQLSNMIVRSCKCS

Row | Binder | pSmad-3, IC50 (TGFβ2 (R&D Systems) [1]) [nM] | pSmad-3, IC50 (TGFβ1 (R&D Systems) [2]) [nM] | pSmad-3, IC50 (TGFβ3 (R&D Systems) [3]) [nM] | Kd (TGFβ2 (R&D Systems) [4]) [nM] | Kd (TGFβ1 (R&D Systems) [5]) [nM] | Kd (TGFβ3 (R&D Systems) [6]) [nM]
1 | affinity matured HcLb 189 (antibody, V domains shown, full IgG; also called canHcLb/S55W/D100Y + canHcLb/237ND/242TS) VH: EVQLVQSGAEVKKPGASVKVSCKTSGYTFITYWMNWVRQAPGAGLDWMGQIFPAWGSTNYNEMFEGRVTLTADTSTSTAYMELSSLRAGDIAVYYCARGYGNYALDAMDYWGQGTLVTVSS VL: DIVMTQTPPSLSVSPRETASISCRASESVDSYGNSFMHWYLQKPGQSPQLLIYLASNLESGVSDRFSGSGSGTDFTLRISRVEANDTGVYYCQQNDEDPLSFGQGTK | 3.29 | 2.21 | 2.13 | 0.922 | 2.65 | 0.226
2 | affinity matured HcLb 73 (antibody, V domains shown) VH: EVQLVQSGAEVKKPGASVKVSCKTSGYTFITYWMNWVRQAPGAGLDWMGQIFPASGSTNYNEMFEGRVTLTADTSTSTAYMELSSLRAGDIAVYYCARGYGNYALDAMDYWGQGTLVTVSS VL: DIVMTQTPPSLSVSPRETASISCRASESVDSYGNSFMHWYLQKPGQSPQLLIYLASNLESGVSDRFSGSGSGTDFTLRISRVEANDTGVYYCQQNDEDPLTFGQGTK | 8.42 | 1.17 | 1.24 |  |  | 
3 | affinity matured HcLb 190 (antibody, V domains shown) VH: EVQLVQSGAEVKKPGASVKVSCKTSGYTFITYWMNWVRQAPGAGLDWMGQIFPGSGSTNYNEMFEGRVTLTADTSTSTAYMELSSLRAGDIAVYYCARGYGNYALDAMDYWGQGTLVTVSS VL: DIVMTQTPPSLSVSPRETASISCRASESVDSYGNSFMHWYLQKPGQSPQLLIYLASNLESGVSDRFSGSGSGTDFTLRISRVEANDTGVYYCQQNDEDPLSFGQGTK | 2.77 | 3.26 | 7.79 |  |  | 
4 | affinity matured HcLb 91 (antibody, V domains shown) VH: EVQLVQSGAEVKKPGASVKVSCKTSGYTFITYWMNWVRQAPGAGLDWMGQIFPAWGSTNYNEMFEGRVTLTADTSTSTAYMELSSLRAGDIAVYYCARGDGNYALDAMDYWGQGTLVTVSS VL: DIVMTQTPPSLSVSPRETASISCRASESVDSYGNSFMHWYLQKPGQSPQLLIYLASNLESGVSDRFSGSGSGTDFTLRISRVEANDTGVYYCQQNNEDPLTFGQ | 4.43 | 2.16 | 2.31 |  |  | 
5 | affinity matured HcLb 187 (antibody, V domains shown) VH: EVQLVQSGAEVKKPGASVKVSCKTSGYTFITYWMNWVRQAPGAGLDWMGQIFPGSGSTNYNEMFEGRVTLTADTSTSTAYMELSSLRAGDIAVYYCARGYGNYALDAMDYWGQGTLVTVSS VL: DIVMTQTPPSLSVSPRETASISCRASESVDSYGNSFMHWYLQKPGQSPQLLIYLASNLESGVSDRFSGSGSGTDFTLRISRVEANDTGVYYCQQNNEDPLTFGQ | 2.08 | 0.82 | 8.61 |  |  | 
6 | affinity matured HcLb 27 (antibody, V domains shown) VH: EVQLVQSGAEVKKPGASVKVSCKTSGYTFITYWMNWVRQAPGAGLDWMGQIFPASGSTNYNEMFEGRVTLTADTSTSTAYMELSSLRAGDIAVYYCARGYGNYALDAMDYWGQGTLVTVSS VL: DIVMTQTPPSLSVSPRETASISCRASESVDSYGNSFMHWYLQKPGQSPQLLIYLASNLESGVSDRFSGSGSGTDFTLRISRVEANDTGVYYCQQNNEDPLTFGQ | 8.24 | 1.43 | 1.7 |  |  | 
7 | affinity matured HcLb 257 (antibody, V domains shown, full IgG; also called canHcLb/55SW/100DY/30IM/31TK + canHcLb/237ND/242TS) VH: EVQLVQSGAEVKKPGASVKVSCKTSGYTFMKYWMNWVRQAPGAGLDWMGQIFPAWGSTNYNEMFEGRVTLTADTSTSTAYMELSSLRAGDIAVYYCARGYGNYALDAMDYWGQGTLVTVSS VL: DIVMTQTPPSLSVSPRETASISCRASESVDSYGNSFMHWYLQKPGQSPQLLIYLASNLESGVSDRFSGSGSGTDFTLRISRVEANDTGVYYCQQNDEDPLSFGQGTK | 2.02 | 0.7 | 1.6 | 4.72 | 2.03 | 0.649
8 | affinity matured HcLb 268 (antibody, V domains shown, full IgG; constant regions not restated) VH: EVQLVQSGAEVKKPGASVKVSCKTSGYIFMKYWMNWVRQAPGAGLDWMGQIFPAWGMTNYNEMFEGRVTLTADTSTSTAYMELSSLRAGDIAVYYCARGYGNYALDAMDYWGQGTLVTVSS VL: DIVMTQTPPSLSVSPRETASISCRASESVDSYGNSFMHWYLQKPGQSPQLLIYLASNLESGVSDRFSGSGSGTDFTLRISRVEANDTGVYYCQQNNEDPLTFGQ |  |  |  | 3.96 | 5.34 | 1.03
9 | affinity matured HcLb 267 (antibody, V domains shown, full IgG; constant regions not restated) VH: EVQLVQSGAEVKKPGASVKVSCKTSGYIFMKYWMNWVRQAPGAGLDWMGQIFPAWGSTNYNEMFEGRVTLTADTSTSTAYMELSSLRAGDIAVYYCARGYGNYALDAMDYWGQGTLVTVSS VL: DIVMTQTPPSLSVSPRETASISCRASESVDSYGNSFMHWYLQKPGQSPQLLIYLASNLESGVSDRFSGSGSGTDFTLRISRVEANDTGVYYCQQNNEDPLTFGQ |  |  |  | 3.77 | 5.1 | 1.01
10 | affinity matured HcLb 217 (antibody, V domains shown, full IgG; also called canHcLb/S55W/D100Y/I30/M + canHcLb/237ND/242TS) VH: EVQLVQSGAEVKKPGASVKVSCKTSGYTFMTYWMNWVRQAPGAGLDWMGQIFPAWGSTNYNEMFEGRVTLTADTSTSTAYMELSSLRAGDIAVYYCARGYGNYALDAMDYWGQGTLVTVSS VL: DIVMTQTPPSLSVSPRETASISCRASESVDSYGNSFMHWYLQKPGQSPQLLIYLASNLESGVSDRFSGSGSGTDFTLRISRVEANDTGVYYCQQNDEDPLSFGQGTK | 1.71 | 0.78 | 1.44 | 3.91 | 2.58 | 0.676
11 | affinity matured HcLb 233 (antibody, V domains shown, full IgG; also called canHcLb/55SW/100DY/57/SM + canHcLb/237ND/242TS) VH: EVQLVQSGAEVKKPGASVKVSCKTSGYTFITYWMNWVRQAPGAGLDWMGQIFPAWGMTNYNEMFEGRVTLTADTSTSTAYMELSSLRAGDIAVYYCARGYGNYALDAMDYWGQGTLVTVSS VL: DIVMTQTPPSLSVSPRETASISCRASESVDSYGNSFMHWYLQKPGQSPQLLIYLASNLESGVSDRFSGSGSGTDFTLRISRVEANDTGVYYCQQNDEDPLSFGQGTK | 1.68 | 0.71 | 1.33 | 3.98 | 2.03 | 0.457
12 | affinity matured HcLb 239 (antibody, V domains shown, full IgG; also called canHcLb/55SW/100DY/31/TK + canHcLb/237ND/242TS) VH: EVQLVQSGAEVKKPGASVKVSCKTSGYTFIKYWMNWVRQAPGAGLDWMGQIFPAWGSTNYNEMFEGRVTLTADTSTSTAYMELSSLRAGDIAVYYCARGYGNYALDAMDYWGQGTLVTVSS VL: DIVMTQTPPSLSVSPRETASISCRASESVDSYGNSFMHWYLQKPGQSPQLLIYLASNLESGVSDRFSGSGSGTDFTLRISRVEANDTGVYYCQQNDEDPLSFGQGTK | 5.42 | 1.43 | 1.54 | 6.44 | 3.53 | 0.431
